From article PMC8891275, “Crosstalk between CRISPR-Cas9 and the human transcriptome” come the findings set out here.

Where only a bound is given, the exact number is not on record here.

For data set [1], the target named is T1, SpCas9-NLS (CAS9PROT, Sigma-Aldrich) (UniProt Q99ZW2 1-1368). Put plainly: EMSA; apparent Kd, high nanomolar; 20 nM RNA, Cas9 0-1000 nM; no gRNA; 20 mM Tris-HCl pH 7.4, 150 mM KCl, 5 mM MgCl2, 5 mM EDTA, 1 mM DTT, 0.1% BSA, 5% glycerol, 0.01% Tween 20, 50 ug/mL heparin, 200 U/mL Superase-In; 30 min at room temperature; gel at 4 C. The conditions noted are these: protein: commercial; tags: NLS; label: 5' IRDye 800CW; GU-loop upstream of 5-nt stem. For orientation: A gel shift assay detects complexes by their altered migration in electrophoresis.
T1 sequence (Q99ZW2 whole entry): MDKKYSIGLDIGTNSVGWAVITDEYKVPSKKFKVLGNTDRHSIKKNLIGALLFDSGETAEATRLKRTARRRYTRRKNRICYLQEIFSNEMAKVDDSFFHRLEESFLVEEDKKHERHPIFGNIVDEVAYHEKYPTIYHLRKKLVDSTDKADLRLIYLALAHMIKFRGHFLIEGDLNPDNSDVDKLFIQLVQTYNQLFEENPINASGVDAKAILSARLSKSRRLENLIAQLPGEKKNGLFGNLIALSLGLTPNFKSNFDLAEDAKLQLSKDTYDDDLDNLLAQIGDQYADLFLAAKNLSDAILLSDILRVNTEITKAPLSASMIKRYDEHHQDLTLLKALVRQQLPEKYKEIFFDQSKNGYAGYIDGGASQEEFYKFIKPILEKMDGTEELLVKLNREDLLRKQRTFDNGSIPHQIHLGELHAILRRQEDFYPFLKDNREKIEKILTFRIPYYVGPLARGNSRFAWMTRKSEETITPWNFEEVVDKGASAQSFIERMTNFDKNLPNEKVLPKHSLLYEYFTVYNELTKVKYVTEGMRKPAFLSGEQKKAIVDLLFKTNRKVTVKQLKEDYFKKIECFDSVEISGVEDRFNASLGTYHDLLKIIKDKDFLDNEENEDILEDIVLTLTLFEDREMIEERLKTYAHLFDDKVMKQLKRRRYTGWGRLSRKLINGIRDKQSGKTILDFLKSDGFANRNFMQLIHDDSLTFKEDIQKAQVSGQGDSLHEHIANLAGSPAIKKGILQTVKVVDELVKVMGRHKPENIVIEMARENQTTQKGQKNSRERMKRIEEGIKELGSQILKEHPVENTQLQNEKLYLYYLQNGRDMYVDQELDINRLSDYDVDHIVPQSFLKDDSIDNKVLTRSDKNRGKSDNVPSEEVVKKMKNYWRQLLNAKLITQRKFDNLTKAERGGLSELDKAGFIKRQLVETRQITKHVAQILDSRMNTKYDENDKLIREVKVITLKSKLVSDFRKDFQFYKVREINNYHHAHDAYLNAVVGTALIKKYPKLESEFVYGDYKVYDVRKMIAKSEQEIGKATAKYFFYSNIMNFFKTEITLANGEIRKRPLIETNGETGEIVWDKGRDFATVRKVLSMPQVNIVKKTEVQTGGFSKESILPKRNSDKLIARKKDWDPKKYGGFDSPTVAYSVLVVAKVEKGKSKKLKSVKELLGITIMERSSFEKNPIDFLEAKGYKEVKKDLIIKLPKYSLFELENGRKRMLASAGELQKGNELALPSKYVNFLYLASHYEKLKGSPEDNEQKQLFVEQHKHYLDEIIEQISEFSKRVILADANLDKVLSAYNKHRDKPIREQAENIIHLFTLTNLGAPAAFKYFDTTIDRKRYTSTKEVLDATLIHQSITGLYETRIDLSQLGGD

Data set [2] deals with T1, SpCas9-NLS (CAS9PROT, Sigma-Aldrich). The data set is described as follows: competition; outcompetes 20 nM labeled CDIP1 RNA; Cas9 640 nM; 1:1 to 1:32 to Cas9; 20 mM Tris-HCl pH 7.4, 150 mM KCl, 5 mM MgCl2, 5 mM EDTA, 1 mM DTT, 0.1% BSA, 5% glycerol, 0.01% Tween 20, 50 ug/mL heparin, 200 U/mL Superase-In; 30 min at room temperature; gel at 4 C. The conditions noted are these: protein: commercial; tags: NLS; guide RNA hairpins.

For data set [3] the target is unchanged. Put plainly: competition; does not outcompete 20 nM labeled CDIP1 RNA; Cas9 640 nM; 1:1 to 1:32 to Cas9; 20 mM Tris-HCl pH 7.4, 150 mM KCl, 5 mM MgCl2, 5 mM EDTA, 1 mM DTT, 0.1% BSA, 5% glycerol, 0.01% Tween 20, 50 ug/mL heparin, 200 U/mL Superase-In; 30 min at room temperature; gel at 4 C. The conditions noted are these: protein: commercial; tags: NLS.

B1: CDIP1 5' UTR RNA (Fig. 2) (structured_RNA)
RNA: UACCCGCCUCCUUGUGACAGAAGUGCGACUGCCAGCUGCCGAGGCGUUCGGUCCUGCUGUUGCGGCCGCUGCCCCAGGGCUGCGGGGACGGUGAGUCGACUGGA
Consider B1, for which the Kd in data set [1] is > 100 nM.

B2: Cas9 gRNA (structured_RNA)
RNA: AUUAAUCGGUGGGAGUAUUCGUUUAAGAGCUAUGCUGGAAACAGCAUAGCAAGUUUAAAUAAGGCUAGUCCGUUAUCAACUUGAAAAAGUGGCACCGAGUCGGUGCU
For the molecule B2, the binding result in data set [2] is “binds”.

B3: non-specific (N.S.) RNA, unlabeled (ssRNA)
RNA: CUAUGCGGCAUCAGAGCAGAUUGUACUGAGAGUGCACCAUAUGCGGUGUGAAAUACCGCACAGAUGCGUAAGGAGAAAAUACCGCAUCAGGCGCCAUUCGCCAUUCAGGCUGCGCAACUGUUGG
In the case of B3, the binding result in data set [3] is given as “no binding”.
